This note sets out measurements from paper PMC11998489.

Holding throughout (assay): split reporter (BiFC, NanoBiT); mCherry BiFC (Nm and Cm fusions) in Sf9 cells transfected with a pair of plasmids (2 ug/well each); 36 h p.t.; epifluorescence microscopy; percentage of fluorescent cells in each field
Test [1] deals with Hse1 (BiFC fusion) (S. frugiperda).
The target of test [2] is Vps25 (BiFC fusion) (S. frugiperda).
For test [3], the target named is Vps27 (BiFC fusion) (S. frugiperda).
Test [4] addresses Vps36 (BiFC fusion) (S. frugiperda).

In test [1], Chm7 (BiFC fusion) (natural protein) displayed a percentage of fluorescent cells in BiFC of 5%. Consider Tsg101 (BiFC fusion) (natural protein), for which the percentage of fluorescent cells in BiFC in test [2] and in test [3] was 5% each time.

Vps2B (BiFC fusion) (natural protein) returned a percentage of fluorescent cells in BiFC in test [1] of 5%. The substance Vps28 (BiFC fusion) (natural protein) gave a percentage of fluorescent cells in BiFC in test [4] of 5%.
